{
  "source": "the nanobody polyreactivity screen of Harvey et al. (2022)",
  "data": [
    {"assay": "yeast display, Sf9 membrane polyspecificity reagent, FACS + sequencing; frameworks hold sequencing errors", "method_in_brief": "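Synthetic nanobody libraries on Saccharomyces cerevisiae BJ5465 were galactose-induced for 36–48 hours, stained 1 hour at 4 °C with 10% biotinylated, detergent-solubilized Sf9 membrane reagent and enriched on streptavidin microbeads. FACS then separated cells into low and high (top ~1%) gates by anti-HA (expression) and streptavidin (reagent binding) fluorescence. Genes were colony-PCR amplified, MiSeq 2 × 250 sequenced and CDR-length filtered. A clone's polyreactivity label is that of its gate of origin.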", "values": [
      {"sequence": "QVQLVESGGGLVQAGGSLRLICAASGSNFWSYAMGWYRQAPGKERELVADITWSGGNTYADSVKGRFTISRDNAMNTVYLQMNSLKPEDTAVYYCAADPAHGTKWYVYPSHDDYWGQGTQVTVSS", "polyreactivity (PSR sort gate)": "low polyreactivity"},
      {"sequence": "QVQLVESGGGLVQAGGSLRLICAASGSNFYVYAMGWYRQAPGKERELVAAISDSGSRTYYADSVKGRFTISRDNAKNTVYLKKNSLKPEDTAVYYCAALTRRTGYTYKEYYWGQGTQVTVSS", "polyreactivity (PSR sort gate)": "high polyreactivity"},
      {"sequence": "QVQLVESGGGLVQAGGSLRLICAASGSTFAFYAMGWYRQAPGKERELVAAISRSGGRTYYADSVKGRFTISRDNAKNTVYLQMNSLKPEDTAVYYCAAPSRITTGPHREYDYWGQGTQVTVSS", "polyreactivity (PSR sort gate)": "high polyreactivity"},
      {"sequence": "QVQLVESGGGLVQAGGSLRLICAASGSTFAIYAMGWYRQAPGKERELVAAISWRTGSTYYADSVKGRFTISRDNAKNTVYLQMNSLKPEDTAVYYCAVRGRLQYSGGEGNYWGQGTQVTVSS", "polyreactivity (PSR sort gate)": "high polyreactivity"},
      {"sequence": "QVQLVESGGGLVQAGGSLRLICAASGSTFDGNVMGWYRQAPGKERELVADIDSGGSTNYADSVKGRFTISRDNAKNTVYLQMNSLKPEDTAFYYCNAEWDDSFIRWFRYRGNYWGQGTQVTVSS", "polyreactivity (PSR sort gate)": "low polyreactivity"},
      {"sequence": "QVQLVESGGGLVQAGGSLRLICAASGSTFDVNAMGWYRQAPGKEREFVAANSWSGGSTYYADSVKGRFTISRDIAKNTVYLQMNSLKPEDTAVYYCNADYVFKDGLGFRGLAGGDYWGQGTQVTVSS", "polyreactivity (PSR sort gate)": "low polyreactivity"},
      {"sequence": "QVQLVESGGGLVQAGGSLRLICAASGSTFDYYAKGWYRQATGKERELVASITWGDGSTYYADSVKGRFTISRDNAKNTVYLQRNSLKPEDTAVYYCNDDDTQLESYAPGHGYDYWGQGTQVTVSS", "polyreactivity (PSR sort gate)": "low polyreactivity"},
      {"sequence": "QVQLVESGGGLVQAGGSLRLICAASGSTFDYYAMGWYRQAPGKERELVAAISRRGGNTYYADSVKGRFTISRDNAKNTVYLQMNSLKQEDTAVYYCAAQTYKWYDWGHGTQVTVSS", "polyreactivity (PSR sort gate)": "high polyreactivity"},
      {"sequence": "QVQLVESGGGLVQAGGSLRLICAASGSTFFPYAMGWYRQAPGKERELVAGISSDGGTSYADSVKGRFTISRDNAKNTVYLQMNSLKPEDTAVYYCAAYYTHQPAHHYWGQGTQVTVSS", "polyreactivity (PSR sort gate)": "low polyreactivity"},
      {"sequence": "QVQLVESGGGLVQAGGSLRLICAASGSTFIPNAMGWYRQSPGKERELVAAISTGGSTNYADSVKGRFTISRDNAKNTVYLQINCLKPEDTAVYYCNARRGYYNPGRRFYYWGQGTQVTVSS", "polyreactivity (PSR sort gate)": "low polyreactivity"},
      {"sequence": "QVQLVESGGGLVQAGGSLRLICAASGSTFNSYTMGWYRQAPGKERELVAAISSGGITYYADSEKGRFTISRDNAKNTVYLLMNSLKPEDTAVYYCADRRYRYGYNYWGQGTQVTVSS", "polyreactivity (PSR sort gate)": "high polyreactivity"},
      {"sequence": "QVQLVESGGGLVQAGGSLRLICAASGSTFNTYAMGRYRQAPGKERELVAAITWSGGRTYYADSVKGRFTISRDNAKNTVYLQMNSLKPEDTAVYYCAKGKGPTEYDYWGQGTQVTVSS", "polyreactivity (PSR sort gate)": "high polyreactivity"},
      {"sequence": "QVQLVESGGGLVQAGGSLRLICAASGSTFSINAMGRYRQAPGKERELVAAITTSVDSTYYADSVKGRFTISRDNAKNTVYLQMNSLIPEDTAVYYCAVAFVQFNQYDYWGQGTQVTVSS", "polyreactivity (PSR sort gate)": "low polyreactivity"},
      {"sequence": "QVQLVESGGGLVQAGGSLRLICAASGSTFSSNAMGWYRQAPGKERELVAAISRSGVTTYYADSVKGRFTISRDNAKNTVYLQKHSLKPEDTAVYYCAAQPYSRRYGRYRGFQYKYEYWGQGTQVTVSS", "polyreactivity (PSR sort gate)": "low polyreactivity"},
      {"sequence": "QVQLVESGGGLVQAGGSLRLICAASGSTFTLYAMGWYRQAPGKERELVAAISGIGDSTYYADSVKGRFTISRDNAKNTVYLQMNSLKPEDTAVYYCAADGEYRYDWEYESWGQGTQVTVSS", "polyreactivity (PSR sort gate)": "low polyreactivity"},
      {"sequence": "QVQLVESGGGLVQAGGSLRLICAASGSTFVPNAMGGYRQAPGKERELVAAITASTGRTYYADSVKGRFTISRDNAKNTVYLQMNSLKPEDTAVYYCAAYFVYWSDLEHYYPVEYGYWGQGTQVTVSS", "polyreactivity (PSR sort gate)": "high polyreactivity"},
      {"sequence": "QVQLVESGGGLVQAGGSLRLICAASGSTFVPNAMGWYRQAPGKERELVAAITLSGVSTYYADSVKGRFTISRDNAKNTVYLQMNSLKPEETAVYYCAKDRPGWFHKYDYWGQGTQVTVSS", "polyreactivity (PSR sort gate)": "low polyreactivity"},
      {"sequence": "QVQLVESGGGLVQAGGSLRLICAASGSTFWRYAMGWYRQAPGKERELVAAITGNGGRTYYADSVKGRFTISRDNAKNTVYLQMNSLKPEDTAVYYCAARYRGGVSVGYWGQGTQVTVSS", "polyreactivity (PSR sort gate)": "high polyreactivity"},
      {"sequence": "QVQLVESGGGLVQAGGSLRLICAASGSTFWYYAMGWYRTAPGKDRELVAAITYGGGSTYYADSVKGRFTISRDNAKNTVYLQMNSLKPEDTAVYYCAAQSYDYWYDYDYWGQGTQVTVSS", "polyreactivity (PSR sort gate)": "high polyreactivity"},
      {"sequence": "QVQLVESGGGLVQAGGSLRLICAASGSTFWYYSMGWYRQAPGKERELVAAITRAGSTNYADSVKGRFTISRDNAKNTVYLQMNSLKPEDTAVYYCAADQYHYWYYLGGYDYWGQGTQVTVSS", "polyreactivity (PSR sort gate)": "high polyreactivity"},
      {"sequence": "QVQLVESGGGLVQAGGSLRLICAASGSTFYPYDMGWYRQSPGKEWELVATISSGVSTNYADSVKGRFTISRDNAKNTVYLQMNSLKPEDTAVYYCAVDYFIGDDDYWGQGTLVTVSS", "polyreactivity (PSR sort gate)": "low polyreactivity"},
      {"sequence": "QVQLVESGGGLVQAGGSLRLICAASGSTFYRNVMGWYRQAPGKERELVAAISSGGSTYYADSVKGRFTISRDNAKNTVYLQMNSLKPEDTAVYYCAARKRYSYDYWGQGTQVTVSS", "polyreactivity (PSR sort gate)": "low polyreactivity"},
      {"sequence": "QVQLVESGGGLVQAGGSLRLICAASGSTITLYAMGWYRQAPGKERELVAAISGIGDSTYYADSVKGRFTISRDNAKNTVYLQMNSLKPEDTAVYYCAADGEYRYDWEYESWGQGTQLTVSS", "polyreactivity (PSR sort gate)": "low polyreactivity"},
      {"sequence": "QVQLVESGGGLVQAGGSLRLICAASGSTLFTYAMVWYRQAPGKERELVAAITSSGSTYYADSVKGRFTISRDNAKNTVYLQMNSLKQEDTAVYYCAVPGYRYTNYYYWGQGTQVTVSS", "polyreactivity (PSR sort gate)": "low polyreactivity"},
      {"sequence": "QVQLVESGGGLVQAGGSLRLICAASGSTLYTYAMGWYRQAPGKERELVATISWSGSSTYYADSVKGRFTISRDNAKNTVYLQMNSLKPEDTAVYYCAAPYHYWYRLDYWGQGTQVTVSS", "polyreactivity (PSR sort gate)": "high polyreactivity"},
      {"sequence": "QVQLVESGGGLVQAGGSLRLICAASGTFYYYAMGWYRQAHGNERELVAAISTSDTSTYYADSVKGRFTISRDNAKNTVYLQMNSLKPEDTAVYYCAADTYHNFDYWGQGTQVSVSS", "polyreactivity (PSR sort gate)": "low polyreactivity"},
      {"sequence": "QVQLVESGGGLVQAGGSLRLICAASGTTFPRYAMGWYRKAPGKERELVAAITRSGANTHYADSVKGRFTIPRDNAKNTVYLQMTSLKPEDTAVYYCAARIYWGYGTRYYYWGQGTQVTVSS", "polyreactivity (PSR sort gate)": "high polyreactivity"},
      {"sequence": "QVQLVESGGGLVQAGGSLRLICAASGYIFRYYVMGWYRQAPGKERELVAAITGIDGSTYYADSVKGRFTISRDNAKNTVYLQMNSLKPEDTAVYYCAAVIGDSSYTFYYDMDYWGQGTQVTVSS", "polyreactivity (PSR sort gate)": "low polyreactivity"},
      {"sequence": "QVQLVESGGGLVQAGGSLRLICAASGYIFVRNAMGWYRQAPGKERELVAAISGSGGSTYYADSVKGRFTISRDNAKNTVYLQMNSLKPEDTAVYYSAADYATVTWRGIAYDYWGQGTQVTVSS", "polyreactivity (PSR sort gate)": "low polyreactivity"},
      {"sequence": "QVQLVESGGGLVQAGGSLRLICAASGYTFDYNAMGWYRQAPGKEREFVAAIDWSGGNTYYADSVKGRFTISRDNAKNTVYLQMNSLKPEDTAVYYCNTVTEAVTRRYDYWGQGTQVTVSS", "polyreactivity (PSR sort gate)": "low polyreactivity"},
      {"sequence": "QVQLVESGGGLVQAGGSLRLICAASGYTFRGNAMGRYRPAPGKERELVAAISGSGTRTYYADSVKGRFTISRDNAKNTVYLQMNSLKPEDTAVYYCNAKSLYHYHSADFDYWGQGTQVTVSS", "polyreactivity (PSR sort gate)": "high polyreactivity"},
      {"sequence": "QVQLVESGGGLVQAGGSLRLICAASGYTFSDYAMGLYRQAPGKERELVAVISQSGGSTYYADSVKGRFTISRDNAKNTVYLQMNSLKPEDTAVYDCNVYPSRRRAVGESERYYWGQGTQVTVSS", "polyreactivity (PSR sort gate)": "high polyreactivity"},
      {"sequence": "QVQLVESGGGLVQAGGSLRLICAASGYTLGPYAMGWYRQAPGKERELVAAITSGGSTYYADSVKGRFPISRDNAKHTVYLQMNSLKPEDSAVYYCNKDKGWLAHSRIWLWYDYWGQGTQVTVSS", "polyreactivity (PSR sort gate)": "low polyreactivity"},
      {"sequence": "QVQLVESGGGLVQAGGSLRLICAASRGIFGQYVMGWYRQAPGKERELVAPISSGGNTYADSVKGRFTISRDNAKNTVYLHMNSLKPEDTAVYYCAAPLTGIVEYDYWGQGTQVTVSS", "polyreactivity (PSR sort gate)": "low polyreactivity"},
      {"sequence": "QVQLVESGGGLVQAGGSLRLICADYGRTFKWYAMGWYRQAPGKERELVAVITGLGGSTYYADSVKGRFTISRDNAKNTVYLQMKSLKPEDTAVYYCAARGYSHVASRLYYYWGQGNQVTVSS", "polyreactivity (PSR sort gate)": "high polyreactivity"},
      {"sequence": "QVQLVESGGGLVQAGGSLRLICAGSGSNFSYYAMGWYRQAPGKERELVAAITWSGGTTSYADSVKGRFTISRDNAKNTVYLQMNSLKPEDSAVNYFARSIYVVSAQYDYWGQGTQVTVSS", "polyreactivity (PSR sort gate)": "low polyreactivity"},
      {"sequence": "QVQLVESGGGLVQAGGSLRLICPASGITFVYYAMVWYRQSPGKEMELVATNTKSGVSTYYADSVKGRFTISRDNAKNTVYLQMNSLKPEDTAVYYCAKEVSYRFYWTYDYWGQGTKVTVSS", "polyreactivity (PSR sort gate)": "low polyreactivity"},
      {"sequence": "QVQLVESGGGLVQAGGSLRLIFAASGRTFFSYVMGWYIQAPGKERELVAAITWRGGSTYYADSVKGRFTISRDNAKNTVYLQMNSLKPEDTAVYYCAAPSHGSTSDRYYKFYYWGQGTQVTVSS", "polyreactivity (PSR sort gate)": "high polyreactivity"},
      {"sequence": "QVQLVESGGGLVQAGGSLRLISAASGFIFKIYAMGWHRQAPGKERDLVAAISSGDNTNYADSVKGRFTISRDNAKNTVYLQMNSLKPEDTAVYYCADRAYRWRSFSTMYYWGQGTQVTVSS", "polyreactivity (PSR sort gate)": "high polyreactivity"},
      {"sequence": "QVQLVESGGGLVQAGGSLRLISAASGGISSLNAMGWYSQAPGKERELVAAIDWIGGSTYYADSVKGRFTISRDTAKNTVYLQKNSLKPEDTAVYYCGKRGVYGDRYYYWGQGTQVTVSS", "polyreactivity (PSR sort gate)": "high polyreactivity"},
      {"sequence": "QVQLVESGGGLVQAGGSLRLISAASGLIFKWYGMVWYRQAPGKEREFVAAITSSGTSTYYADSVKGRFTISRDNAKNTVDLHMNSLKPEDTAVYYCNARTKHRYEYDYWGQGTQVTVSS", "polyreactivity (PSR sort gate)": "high polyreactivity"},
      {"sequence": "QVQLVESGGGLVQAGGSLRLISAASGSIFERYAMGWYRQAPGKERELVAAITWTGGSTYYADSVKGRFTISRDNAKNTVYLQMNSLKPEDTAVYYCAADYLYPLWGWYDYWGQGTQVTVSS", "polyreactivity (PSR sort gate)": "low polyreactivity"},
      {"sequence": "QVQLVESGGGLVQAGGSLRLISAASGSIFYRNAMGWYRQAPGKERDLVAAISSDGSTNYADSVKGRFTISRDNAKNTVYLQMNSLKPEDTAVYYCAAPWTQILDFWGQGTQVTVSS", "polyreactivity (PSR sort gate)": "low polyreactivity"}
    ]}
  ]
}
